Source: PMC9308819 (Nature Communications, 2022)

B6: Rep15, full length (natural N101D variant) (natural protein, human, UniProt Q6BDI9 1-236, looked up)
chain: MGQKASQQLALKDSKEVPVVCEVVSEAIVHAAQKLKEYLGFEYPPSKLCPAANTLNEIFLIHFITFCQEKGVDEWLTTTKMTKHQAFLFGADWIWTFWGSDKQIKLQLAVQTLQMSSPPPVESKPCDLSNPESRVEESSWKKSRFDKLEEFCNLIGEDCLGLFIIFGMPGKPKDIRGVVLDSVKSQMVRSHLPGGKAVAQFVLETEDCVFIKELLRNCLSKKDGLREVGKVYISIL
notes: also called full-length Rep15; Rab15 effector protein

Assays:
Rab34 = molecular target: T1, Rab34 (Homo sapiens, UniProt Q9BZG1, Q111L); assay: nucleotide loading, C18 reversed-phase HPLC of bound nucleotide; format: binding
T1 construct: full-length Rab34 from E. coli, preparatively loaded with GppNHp
T1 sequence (Q9BZG1 1-237 Q111L): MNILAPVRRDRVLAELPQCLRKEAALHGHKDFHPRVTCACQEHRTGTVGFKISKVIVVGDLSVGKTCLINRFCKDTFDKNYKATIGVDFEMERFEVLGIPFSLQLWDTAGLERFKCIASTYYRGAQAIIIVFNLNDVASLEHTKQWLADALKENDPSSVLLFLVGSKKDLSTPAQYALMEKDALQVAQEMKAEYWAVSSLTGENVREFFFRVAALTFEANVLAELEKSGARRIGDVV

[1] = molecular target: Rep15, full length (natural N101D variant) (human) (UniProt Q6BDI9); assay: ITC; 500/600 µM GppNHp/GTP Rab titrated into 50/60 µM Rep15; 20 mM Hepes 8.0, 50 mM NaCl, 1 mM MgCl2, 1 mM TCEP; one-site-binding model
[2] = molecular target: T2, Rep15, full length (natural N101D variant) (human, UniProt Q6BDI9 1-236, N101D); assay: ITC
T2 sequence: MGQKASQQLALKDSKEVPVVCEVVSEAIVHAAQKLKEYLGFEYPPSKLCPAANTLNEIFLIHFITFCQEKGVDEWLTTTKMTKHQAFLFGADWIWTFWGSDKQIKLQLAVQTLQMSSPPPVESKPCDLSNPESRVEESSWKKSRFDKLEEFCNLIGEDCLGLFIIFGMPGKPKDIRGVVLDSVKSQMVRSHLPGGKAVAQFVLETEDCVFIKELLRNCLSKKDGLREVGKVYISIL

[3] = molecular target: B6; assay: ITC; 500/600 µM GppNHp/GTP Rab titrated into 50/60 µM Rep15; 20 mM Hepes 8.0, 50 mM NaCl, 1 mM MgCl2, 1 mM TCEP; one-site-binding model; details: both partners purified
[4] = molecular target: T2, Rep15, full length (natural N101D …); assay: ITC; remark: listed apart in the source
[5] = molecular target: B6; assay: SEC; analytical SEC; 110 µM Rep15 and 121 µM Rab mixed; Superdex 75 10/300 GL; 20 mM Hepes 8.0, 50 mM NaCl, 1 mM MgCl2, 2 mM DTE; room temperature; details: both partners purified
[6] = molecular target: T3, Rab34 Q111L F114Y, purified (human, UniProt Q9BZG1 1-237, Q111L | F114Y); assay: ITC
T3 sequence: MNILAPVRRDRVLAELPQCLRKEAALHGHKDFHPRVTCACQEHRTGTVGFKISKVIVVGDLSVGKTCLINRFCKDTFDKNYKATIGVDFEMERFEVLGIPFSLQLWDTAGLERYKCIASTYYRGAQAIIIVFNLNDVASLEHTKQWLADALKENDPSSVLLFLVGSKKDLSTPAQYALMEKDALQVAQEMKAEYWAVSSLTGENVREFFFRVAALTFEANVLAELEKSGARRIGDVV

[7] = molecular target: T4, Rab34 Q111L 1-237 (dominant active), purified, GTP-loaded (human, UniProt Q9BZG1 1-237, Q111L); assay: ITC; 500/600 µM GppNHp/GTP Rab titrated into 50/60 µM Rep15; 20 mM Hepes 8.0, 50 mM NaCl, 1 mM MgCl2, 1 mM TCEP; one-site-binding model; details: both partners purified
T4 construct: Rab34, human, residues 1-237 with Q111L; also called Rab34_(Q111L_1-237aa)
T4 sequence (looked up): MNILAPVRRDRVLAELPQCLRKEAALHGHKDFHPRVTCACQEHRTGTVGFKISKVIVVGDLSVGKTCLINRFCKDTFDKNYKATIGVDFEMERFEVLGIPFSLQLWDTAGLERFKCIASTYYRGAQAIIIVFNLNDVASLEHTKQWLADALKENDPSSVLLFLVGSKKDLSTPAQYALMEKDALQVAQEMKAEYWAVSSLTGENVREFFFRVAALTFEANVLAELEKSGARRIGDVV

[8] = molecular target: B6; assay: fluorescence polarisation; stopped flow, association; mant-GppNHp Rab15 mixed with increasing Rep15 (2.5–25 µM); 25 °C; 20 mM Hepes 8.0, 50 mM NaCl, 2 mM MgCl2, 2 mM DTE; kobs against Rep15 concentration, koff from the intercept, KD as koff/kon; details: both partners purified

In the case of `Nc1nc2c(ncn2[C@@H]2O[C@H](COP(=O)(O)OP(N)(=O)O)[C@@H](O)[C@H]2O)c(=O)[nH]1` [GppNH2], the “nucleotide loading, C18 reversed-phase HPLC of bound nucleotide” value (Rab34; formed during loading with GppNHp, mixture with GppNHp) is reported as “apart from GppNHp, Rab34 is also bound to GppNH2 (hydrolysis product of GppNHp)”.

For `Nc1nc2c(ncn2[C@@H]2O[C@H](COP(=O)(O)OP(=O)(O)NP(=O)(O)O)[C@@H](O)[C@H]2O)c(=O)[nH]1` [GppNHp, Guanosine-5′-[β-γ-Imido]-triphosphate], the “nucleotide loading, C18 reversed-phase HPLC of bound nucleotide” value (Rab34; preparative nucleotide exchange, mixture with GppNH2) was “apart from GppNHp, Rab34 is also bound to GppNH2 (hydrolysis product of GppNHp)”.

B1: Rab3A Y84F, purified (natural protein)
chain: MASATDSRYGQKESSDQNFDYMFKILIIGNSSVGKTSFLFRYADDSFTPAFVSTVGIDFKVKTIYRNDKRIKLQIWDTAGQERFRTITTAYYRGAMGFILMYDITNEESFNAVQDWSTQIKTYSWDNAQVLLVGNKCDMEDERVVSSERGRQLADHLGFEFFEASAKDNINVKQTFERLVDVICEKMSESLDTADPAVTGAKQGPQLSDQQVPPHQDCAC
In the case of B1, the fold reduction in affinity against wild-type Rab3A [1] is reported as 23 fold and the Kd [2] is reported as 11100 nM.

B2: Rab27A F81Y, purified (natural protein, human, UniProt P51159 1-221, looked up)
chain: MSDGDYDYLIKFLALGDSGVGKTSVLYQYTDGKFNSKFITTVGIDFREKRVVYRASGPDGATGRGQRIHLQLWDTAGQERYRSLTTAFFRDAMGFLLLFDLTNEQSFLNVRNWISQLQMHAYCENPDIVLCGNKSDLEDQRVVKEEEAIALAEKYGIPYFETSAANGTNISQAIEMLLDLIMKRMERCVDKSWIPEGVVRSNGHASTDQLSEEKEKGACGC
notes: Rab27A, human, with F81Y; also called F81Y Rab27A; source: E. coli, purified
With B2 the Kd [2] was 10800 nM and the “fold increase in affinity against wild-type Rab27A” value [3] was over 8 fold.

B3: Rab27A, purified (natural protein)
chain: MSDGDYDYLIKFLALGDSGVGKTSVLYQYTDGKFNSKFITTVGIDFREKRVVYRASGPDGATGRGQRIHLQLWDTAGQERFRSLTTAFFRDAMGFLLLFDLTNEQSFLNVRNWISQLQMHAYCENPDIVLCGNKSDLEDQRVVKEEEAIALAEKYGIPYFETSAANGTNISQAIEMLLDLIMKRMERCVDKSWIPEGVVRSNGHASTDQLSEEKEKGACGC
With B3 the Kd [2] was 86200 nM.

B4: Rab3A V61N, purified (natural protein, human, UniProt P20336 1-220, looked up)
chain: MASATDSRYGQKESSDQNFDYMFKILIIGNSSVGKTSFLFRYADDSFTPAFVSTVGIDFKNKTIYRNDKRIKLQIWDTAGQERYRTITTAYYRGAMGFILMYDITNEESFNAVQDWSTQIKTYSWDNAQVLLVGNKCDMEDERVVSSERGRQLADHLGFEFFEASAKDNINVKQTFERLVDVICEKMSESLDTADPAVTGAKQGPQLSDQQVPPHQDCAC
notes: Rab3A, human, with V61N; Tag as told for the 6His-tagged Rab3 paralogs in general; source: E. coli BL21 Codon-Plus (DE3)-RIL, purified
In the case of B4, the Kd [2] is reported as 390 nM and the binding result [3] is reported as “binds”.

B5: Rab3D, purified, GppNHp-loaded (natural protein, human, UniProt O95716 1-219, looked up)
chain: MASAGDTQAGPRDAADQNFDYMFKLLLIGNSSVGKTSFLFRYADDSFTPAFVSTVGIDFKVKTVYRHDKRIKLQIWDTAGQERYRTITTAYYRGAMGFLLMYDIANQESFAAVQDWATQIKTYSWDNAQVILVGNKCDLEDERVVPAEDGRRLADDLGFEFFEASAKENINVKQVFERLVDVICEKMNESLEPSSSSGSNGKGPAVGDAPAPQPSSCSC
notes: Rab3D, human; source: E. coli BL21 Codon-Plus (DE3)-RIL, purified (Ni Sepharose, TEV cleavage, gel filtration)
B5 was tested, and the Kd [4] was 790 nM and the binding result [5] was “binds”.

With B6 the Kd [6] was 78.7 nM and the Kd [7] was 64 ± 32 nM.

B7: Rab3B, purified, GppNHp-loaded (natural protein, human)
chain: MASVTDGKTGVKDASDQNFDYMFKLLIIGNSSVGKTSFLFRYADDTFTPAFVSTVGIDFKVKTVYRHEKRVKLQIWDTAGQERYRTITTAYYRGAMGFILMYDITNEESFNAVQDWATQIKTYSWDNAQVILVGNKCDMEEERVVPTEKGQLLAEQLGFDFFEASAKENISVRQAFERLVDAICDKMSDSLDTDPSMLGSSKNTRLSDTPPLLQQNCSC
notes: Rab3B, human; also called Rab3B_(GppNHp); source: E. coli BL21 Codon-Plus (DE3)-RIL, purified (Ni Sepharose, TEV cleavage, gel filtration)
B7 was tested, and the Kd [4] was 2160 nM and the binding result [5] was “binds”.

B8: Rab15, purified, nucleotide-loaded (natural protein, human, UniProt P59190 1-212, looked up)
chain: MAKQYDVLFRLLLIGDSGVGKTCLLCRFTDNEFHSSHISTIGVDFKMKTIEVDGIKVRIQIWDTAGQERYQTITKQYYRRAQGIFLVYDISSERSYQHIMKWVSDVDEYAPEGVQKILIGNKADEEQKRQVGREQGQQLAKEYGMDFYETSACTNLNIKESFTRLTELVLQAHRKELEGLRMRASNELALAELEEEEGKPEGPANSSKTCWC
notes: Rab15, human; Loaded with GppNHp (aSEC, ITC) or mant-GppNHp / mant-dGppNHp (stopped flow); also called Rab15_(GppNHp); Rab15_(mant-GppNHp); source: E. coli BL21 Codon-Plus (DE3)-RIL, purified (Ni Sepharose, TEV cleavage, gel filtration)
Molecule B8 has a Kd [8] of 580 nM, a koff [8] of 4.73 s⁻¹ and a kon [8] of 8.16e+06 M⁻¹ s⁻¹. The Kd [3] was 470 ± 120 nM and the “stoichiometry N” value [3] was 1.
